The record followed here is patent US20210380675A1 (Kyowa Kirin, published 2021).

Where a chain is given by its changes, count along the chain named.

T1: human IL-36α (R&D Systems cat#6995-IL-010/CF) (human, UniProt Q9UHA7 6-158)
T1 sequence (looked up): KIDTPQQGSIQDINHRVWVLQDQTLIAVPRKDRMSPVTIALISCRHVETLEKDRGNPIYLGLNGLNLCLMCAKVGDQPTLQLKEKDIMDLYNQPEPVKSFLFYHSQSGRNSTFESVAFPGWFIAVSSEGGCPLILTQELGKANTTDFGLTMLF

T2: human IL-36α(R12), truncated (human, UniProt Q9UHA7 6-158)
T2 construct: Untagged after removal of the His-SUMO tag; also called hIL-36alpha
T2 chain: T1 sequence (looked up) with Q7R

T3: cynomolgus IL-36α, truncated (cynomolgus macaque (Macaca fascicularis), UniProt Q9UHA7 14-158 (human entry), limits assumed)
T3 construct: Untagged after removal of the His-SUMO tag; also called cynomolgus IL-36 alpha; cyIL-36alpha
T3 chain: T1 sequence (looked up) with I2S, D3E, T4M, Q7P, G8V, T24I, M34V, A40S, V74A

T4: cynomolgus IL-36γ, truncated (cynomolgus macaque (Macaca fascicularis), UniProt Q9NZH8 18-167 (human entry), limits assumed)
T4 construct: Untagged after removal of the His-SUMO tag; also called cynomolgus IL-36 gamma; cyIL-36gamma
T4 chain: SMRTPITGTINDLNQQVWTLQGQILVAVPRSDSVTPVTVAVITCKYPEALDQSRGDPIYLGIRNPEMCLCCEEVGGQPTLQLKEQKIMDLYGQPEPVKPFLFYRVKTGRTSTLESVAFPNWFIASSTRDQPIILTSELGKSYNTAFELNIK

T5: IL-36 receptor (heterodimer of IL-36R and IL-1RAcP) on human cells (human, UniProt Q9HB29 20-575; Q9NPH3 21-570)
T5 sequence (looked up) 1: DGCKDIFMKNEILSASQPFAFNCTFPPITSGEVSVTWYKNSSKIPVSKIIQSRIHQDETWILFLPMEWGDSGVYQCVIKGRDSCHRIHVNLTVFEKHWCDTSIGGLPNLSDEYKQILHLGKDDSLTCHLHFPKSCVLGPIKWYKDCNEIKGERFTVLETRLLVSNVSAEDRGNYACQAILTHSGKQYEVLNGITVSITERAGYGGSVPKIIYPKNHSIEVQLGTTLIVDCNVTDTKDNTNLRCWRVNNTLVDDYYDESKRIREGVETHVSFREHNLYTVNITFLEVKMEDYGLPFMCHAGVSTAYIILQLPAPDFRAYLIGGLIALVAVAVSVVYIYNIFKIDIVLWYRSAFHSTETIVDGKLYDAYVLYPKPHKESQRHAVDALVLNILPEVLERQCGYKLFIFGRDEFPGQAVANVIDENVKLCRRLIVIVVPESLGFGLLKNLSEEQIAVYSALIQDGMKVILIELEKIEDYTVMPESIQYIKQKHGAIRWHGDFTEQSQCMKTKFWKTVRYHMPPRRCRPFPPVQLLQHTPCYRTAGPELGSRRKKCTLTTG
T5 sequence (looked up) 2: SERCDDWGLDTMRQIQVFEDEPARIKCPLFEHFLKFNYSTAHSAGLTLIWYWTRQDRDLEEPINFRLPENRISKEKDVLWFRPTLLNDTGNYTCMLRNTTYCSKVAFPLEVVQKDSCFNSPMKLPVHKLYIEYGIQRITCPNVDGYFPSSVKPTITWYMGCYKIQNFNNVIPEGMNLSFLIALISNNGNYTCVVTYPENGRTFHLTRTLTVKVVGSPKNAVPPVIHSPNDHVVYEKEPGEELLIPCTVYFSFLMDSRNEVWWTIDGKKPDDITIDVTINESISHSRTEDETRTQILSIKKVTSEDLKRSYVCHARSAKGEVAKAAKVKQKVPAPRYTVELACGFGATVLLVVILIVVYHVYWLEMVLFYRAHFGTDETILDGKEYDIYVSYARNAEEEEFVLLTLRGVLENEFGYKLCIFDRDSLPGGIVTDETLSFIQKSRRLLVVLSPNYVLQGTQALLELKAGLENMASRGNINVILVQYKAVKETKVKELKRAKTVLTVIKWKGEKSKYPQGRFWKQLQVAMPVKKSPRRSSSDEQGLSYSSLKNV

B1: 144D464A LV9are HV10b (antibody, V domains shown)
VH: QVQLVQSGAEVKKPGASVKVSCKASGFNIKDTYIHWVRQAPGQGLEWIGRIDPAIGTTRYDPKFQGRATITTDTSTSTVYLEFSSLRSEDTAVYYCARLHYFGNNFFFDYWGQGTLVTVSS
VL: QAVVTQEPSLTVSPGGTVTLTCRSSSGAVTTSNYANWVQEKPGQLFAGLIGGTNDRAPGVPARFSGSLLGGKAALTLSGAQPEDEADYFCALWFSNHWVFGGGTKLTVL
notes: Humanized
B2: 144D464A LV7a HV10b (antibody, V domains shown)
VH: B1 VH
VL: B1 VL with E40Q, L45A, L77I
notes: Humanized; also called humanized 144D464A antibody LV7a HV10b
B3: human IL-36γ, truncated (ligand)
chain: SMCKPITGTINDLNQQVWTLQGQNLVAVPRSDSVTPVTVAVITCKYPEALEQGRGDPIYLGIQNPEMCLYCEKVGEQPTLQLKEQKIMDLYGQPEPVKPFLFYRAKTGRTSTLESVAFPDWFIASSKRDQPIILTSELGKSYNTAFELNIND
B4: 144D464A (antibody, V domains shown)
VH: EVQLQQSGAELVKPGASVRLSCTASGFNIKDTYIHWVKQRPEQGLEWIGRIDPAIGTTRYDPKFQGKATITTDTSSDTVHLQFSSLTSEDTAVYYCARLHYFGNNFFFDYWGQGTTLTVSS
VL: QAVVTQESALTTSPGEAVTLTCRSSSGAVTTSNYANWVQEKPDHLFAGLIGGTNDRAPGVPARFSGSLIGDKAALTITGAQTEDEAIYFCALWFSNHWVFGGGTKLTVL
notes: Mouse monoclonal from hybridoma; mouse IgG heavy and lambda light chain; also called mouse antibody 144D464A

Test [1] deals with B3. In words: cell-based or functional assay.
Test [2] concerns the target T1, human IL-36α (R&D Systems …). The test can be described thus: cell-based or functional assay.
Test [3] has as its target T2, human IL-36α(R12), truncated. The test can be described thus: SPR, Biacore, 1:1 Langmuir fit. The procedure: (§1) The humanized antibodies obtained in Example 6 were tested for their binding to recombinant human or cynomolgus macaque IL36a and IL-36γ in Biacore assays. The association time was set to 60 seconds, and the final dissociation time was set to 600 seconds. Equilibrium dissociation constant KD (kd/ka) of exemplary antibodies was determined using a 1:1 Langmuir fit model (see Tables 17-18 below).

For test [4], the target named is B3. In words: SPR, Biacore, 1:1 Langmuir fit. The procedure: as §1
For orientation: SPR reads the build-up and loss of mass on a sensor chip optically.

Test [5] has as its target T3, cynomolgus IL-36α, truncated. The test can be described thus: SPR, Biacore, 1:1 Langmuir fit. The procedure: as §1
Test [6] addresses T4, cynomolgus IL-36γ, truncated. The test can be described thus: SPR, Biacore, 1:1 Langmuir fit. The method, then: as §1
Test [7] concerns the target T2, human IL-36α(R12), truncated. The test can be described thus: SPR, Biacore, 1:1 Langmuir fit; heads of c3 and c4 printed swapped. The procedure:
as §1

Test [8] has as its target B3. The test is described as above. The method, then: as §1
Test [9] has as its target T3, cynomolgus IL-36α, truncated. The test is described as above. The procedure:
as §1

The target of test [10] is T4, cynomolgus IL-36γ, truncated. The description is as above. The procedure:
as §1

Test [11] has as its target T5, IL-36 receptor (heterodimer of IL-36R …). The test can be described thus: cell-based or functional assay.
For test [12], the target named is T2, human IL-36α(R12), truncated. In words: cell-based or functional assay.
The target of test [13] is T3, cynomolgus IL-36α, truncated. In words: cell-based or functional assay.
Test [14] deals with B3. In words: cell-based or functional assay. This is another data set of the same source.
Test [15] has as its target T4, cynomolgus IL-36γ, truncated. In words: cell-based or functional assay.
Test [16] addresses T2, human IL-36α(R12), truncated. In words: cell-based or functional assay.
In test [17] the target is B3. The test can be described thus: cell-based or functional assay. This is another data set of the same source.
The target of test [18] is B3. In words: cell-based or functional assay. The source holds these as a separate data set.
Test [19] has as its target B3. The test can be described thus: cell-based or functional assay. The source holds these as a separate data set.
The target in test [20] is T2, human IL-36α(R12), truncated. In words: SPR, Biacore T200, antibody on chip, IL-36 as analyte, 1:1 Langmuir fit. The essentials:
(§2)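 Single-cycle kinetics: mouse/human chimeric or mouse antibodies captured (~200 RU) via anti-human or anti-mouse Fc on CM5, then increasing IL-36 concentrations injected, 300 s association, 1200 s dissociation. Alternatively ~2000 RU antibody amine-coupled, analyte 30 μL/min for 420 s, 3600 s dissociation, 25° C; double-referenced sensorgrams.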

Test [21] has as its target B3. Described as above. The essentials:
as §2

By Kd is commonly meant the equilibrium constant for the complex coming apart. What is called koff is the rate constant with which the complex falls apart. The term kon denotes the rate constant with which the complex forms. Read a low kon as slower complex formation. With B1, the “IC50 of IL-8 secretion (AlphaLISA), HaCaT, 10 nM human IL-36γ” value with human IL-36γ, truncated [1] is 12.5 nM. The “IC50 of IL-8 secretion (AlphaLISA), HaCaT, 10 nM human IL-36α” value in test [2] was determined as 4.51 nM. The equilibrium dissociation constant (Kd) in test [3] is 2.1 nM; with human IL-36γ, truncated [4] it was 1.3 nM; in [5], 1.19 nM; in test [6], 1.13 nM. For the same molecule, the koff in test [7] stood at 0.000445 s⁻¹; with human IL-36γ, truncated [8], 0.000436 s⁻¹; in test [9] it was 0.000422 s⁻¹; in test [10], 0.000493 s⁻¹. Also, the on-rate constant (kon) was determined as 212000 M⁻¹ s⁻¹ in test [7]; 336000 M⁻¹ s⁻¹ in the test with human IL-36γ, truncated [8]; 354000 M⁻¹ s⁻¹ in test [9]; 434000 M⁻¹ s⁻¹ in [10].

As to B2, in the test with human IL-36γ, truncated [1], the “IC50 of IL-8 secretion (AlphaLISA), HaCaT, 10 nM human IL-36γ” value was found to be 7.83 nM. The “IC50 of IL-8 secretion (AlphaLISA), HaCaT, 10 nM human IL-36α” value in test [2] is 3.9 nM. The Kd in test [3] was determined as 2.09 nM; with human IL-36γ, truncated [4], 1.31 nM; in [5] it was 1.25 nM; in test [6] it was 1.18 nM. The koff in [7] amounted to 0.000456 s⁻¹; in the test with human IL-36γ, truncated [8], 0.000451 s⁻¹; in [9], 0.000451 s⁻¹; in test [10] it was 0.000523 s⁻¹. In addition, the association rate constant (kon) in test [7] was 219000 M⁻¹ s⁻¹; with human IL-36γ, truncated [8], 343000 M⁻¹ s⁻¹; in test [9] it was 362000 M⁻¹ s⁻¹; in test [10], 443000 M⁻¹ s⁻¹.

One may read the EC50 (read off the curve) as the concentration needed to bring the measured effect to its halfway point. A higher EC50 (read off the curve) goes with a need for much substance. Consider B3, for which the “EC50 (read off the curve)” value in test [11] is about 1 nM.

As for B4, the “IC50 of IL-8 secretion, HaCaT, 10 nM human IL-36α, FIG. 1B” value in [12] was determined as 6.49 nM. Besides, the “IC50 of IL-8 secretion, HaCaT, 10 nM cynomolgus IL-36α, FIG. 2A” value in test [13] came to 5.3 nM. In addition, in the test with human IL-36γ, truncated [14], the “IC50 of IL-8 secretion, HaCaT, 10 nM human IL-36γ, FIG. 1E” value was determined as 7.39 nM. Besides, the “IC50 of IL-8 secretion, HaCaT, 10 nM cynomolgus IL-36γ, FIG. 2C” value in test [15] was found to be 15.6 nM. For the same molecule, the “IC50 of IL-8 secretion, primary human keratinocytes, 8 nM human IL-36α, FIG. 4B” value in [16] was found to be 13.4 nM. In addition, the “IC50 of IL-8 secretion, primary human keratinocytes, 8.4 nM human IL-36γ, FIG. 4D” value with human IL-36γ, truncated [17] stood at 13.3 nM. Also, the “IC50 of IL-8 secretion, primary human monocytes, 6 nM human IL-36γ, FIG. 5C” value with human IL-36γ, truncated [18] came to 13.2 nM. Further, the dissociation constant (Kd) in [3] is 1.32 nM; with human IL-36γ, truncated [4], 0.877 nM; in test [5] it was 0.727 nM; in test [6], 0.865 nM; in test [20], 2.53 nM; with human IL-36γ, truncated [21] it was 3.81 nM. Also, in the test with human IL-36γ, truncated [19], the “IC50 (read off the curve)” value was about 8 nM. The koff turned out to be 0.000362 s⁻¹ in test [7]; 0.00034 s⁻¹ in the test with human IL-36γ, truncated [8]; 0.000338 s⁻¹ in [9]; 0.000427 s⁻¹ in test [10]; 0.000309 s⁻¹ in [20]; 0.00032 s⁻¹ with human IL-36γ, truncated [21]. Further, the on-rate (kon) in test [7] turned out to be 274000 M⁻¹ s⁻¹; with human IL-36γ, truncated [8], 388000 M⁻¹ s⁻¹; in [9], 465000 M⁻¹ s⁻¹; in test [10], 493000 M⁻¹ s⁻¹; in [20], 122000 M⁻¹ s⁻¹; with human IL-36γ, truncated [21], 84000 M⁻¹ s⁻¹.
